Experimental data reported in paper PMC4827828, “Cupincin: A Unique Protease Purified from Rice (Oryza sativa L.) Bran Is a New Member of the Cupin Superfamily” (PLoS ONE, 2016).

Target: the molecule itself
Test: SEC; analytical gel filtration on Progel-TSK W-3047 (HPLC), 0.1 M sodium phosphate buffer pH 7.0, 1 mL/min; calibrated with standards of 6.5-160 kDa; apparent mass 135.33 ± 3.5 kDa against 48.5 kDa from the sequence

B1: Cupincin (hypothetical protein OsI_13867) (enzyme, UniProt B8AL97 35-470, looked up)
chain: SRRGEREEEDERRRHGGEGGRPYHFGEESFRHWTRTRHGRFSVLERFPDEQVVGAAVGGYRVAVLEAAPRAFLQPSHYDADEVFYVKEGEGVIVLLREGRKESFCVREGDAMVIPAGAIVYSANTHSSKWFRVVMLLNPVSTPGHFEEYFPVGGDRPESFFSAFSDDVLQAAFNTRREELEKVFERQREGGEITTAPEEQIRELSKSCSRGGGGGSGSEWEIKPSSLTGKSPYFSNNHGKLFELTGDECRHLKKLDLQIGLANITRGSMIAPNYNTRATKLAVVLQGSGYFEMACPHVSGGGSSERREREREHGRRREEEQGEEEHGERGEKARRYHKVRAQVREGSVIVIPASHPATIVASEGESLAVVCFFVGANHDEKVFLAGRNSPLRQLDDPAKKLVFGGSAAREADRVLAAQPEQILLRGPHGRGSVSDM
notes: Cupincin, hypothetical protein OsI_13867 of Oryza sativa L., 436 residues and 48492.94 Da in the database entry; The native protein runs in SDS-PAGE as three polypeptides (about 34.5, 26.9 and 15.9 kDa) that all match OsI_13867; also called purified protease from rice bran; source: purified from rice bran (variety IR-64): ammonium sulphate fractionation (40-80%), Sephadex G-150
  stoichiometry N: 3
